Reference: patent US20260049138A1 (Chugai, published 2026)

Biological target: T1, CD3ε homodimer protein (human, UniProt P07766 23-126, limits assumed, sulfo-tag or biotin label in the ECL assays; amine-coupled to the chip in SPR)
T1 construct: also called human CD3ε homodimer protein; CD3 (CD3ε)
Test: SPR Biacore T200; CD3ε homodimer on CM4 chip;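 also: Single-residue variant antibodies injected as analyte over CD3ε homodimer immobilized by amine coupling, run at 25 °C in HBS-EP+ buffer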
Method: An appropriate amount of CD3ε homodimer protein was immobilized onto Sensor chip CM4 (GE Healthcare Japan Corp.) by the amine coupling method. Then, the antibody having an appropriate concentration was injected thereto as an analyte and allowed to interact with the CD3ε homodimer protein on the sensor chip. Then, the sensor chip was regenerated by the injection of 10 mmol/L glycine-HCl (pH 1.5). The assay was conducted at 25° C., and HBS-EP+ (GE Healthcare Japan Corp.) was used as a running buffer. […] Each parameter was calculated using Biacore T200 Evaluation Software (GE Healthcare Japan Corp.).

T1 sequence (P07766 23-126 limits assumed): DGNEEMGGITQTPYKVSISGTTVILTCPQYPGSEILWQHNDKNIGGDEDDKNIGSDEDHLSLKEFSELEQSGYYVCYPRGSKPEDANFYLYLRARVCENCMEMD

ratio of amounts bound Z=Y/X (altered form / CE115HA000)	Binder
0.67	CE115HA000 K52bA one-arm antibody (antibody, human IgG1, kappa, L234A L235A, N297A, name in Kabat numbering) heavy: QVQLVESGGGVVQPGRSLRLSCAASGFTFSNAWMHWVRQAPGKGLEWVAQIKAASNNYATYYAESVKGRFTISRDDSKNSLYLQMNSLKTEDTAVYYCRYVHYGAYYGVDAWGQGTTVTVSSASTKGPSVFPLAPSSKSTSGGTAALGCLVKDYFPEPVTVSWNSGALTSGVHTFPAVLQSSGLYSLSSVVTVPSSSLGTQTYICNVNHKPSNTKVDKKVEPKSCDKTHTCPPCPAPEAAGGPSVFLFPPKPKDTLMISRTPEVTCVVVDVSHEDPEVKFNWYVDGVEVHNAKTKPREEQYASTYRVVSVLTVLHQDWLNGKEYKCKVSNKALPAPIEKTISKAKGQPREPQVYTLPPSRCELTKNQVSLSCAVKGFYPSDIAVEWESNGQPENNYKTTPPVLDSDGSFFLVSKLTVDKSRWQQGNVFSCSVMHEALHNHYTQKSLSLSPDYKDDDDK EPKSSDKTHTCPPCPAPELLGGPSVFLFPPKPKDTLMISRTPEVTCVVVDVSHEDPEVKFNWYVDGVEVHNAKTKPREEQYNSTYRVVSVLTVLHQDWLNGKEYKCKVSNKALPAPIEKTISKAKGQPREPQVCTLPPSRDELTKNQVSLWCLVKGFYPSDIAVEWESNGQPENNYKTTPPVLDSDGSFFLYSKLTVDKSRWQQGNVFSCSVMHEALHNRYTQKSLSLSP light: DIVMTQSPLSLPVTPGEPASISCRSSQSLVHSNRNTYLHWYQQKPGQAPRLLIYKVSNRFSGVPDRFSGSGSGTDFTLKISRVEAEDVGVYYCGQGTQVPYTFGQGTKLEIKRTVAAPSVFIFPPSDEQLKSGTASVVCLLNNFYPREAKVQWKVDNALQSGNSQESVTEQDSKDSTYSLSSTLTLSKADYEKHKVYACEVTHQGLSSPVTKSFNRGEC
1.11	CE115HA000 K52bR one-arm antibody (antibody, human IgG1, kappa, L234A L235A, N297A, name in Kabat numbering) heavy: QVQLVESGGGVVQPGRSLRLSCAASGFTFSNAWMHWVRQAPGKGLEWVAQIKARSNNYATYYAESVKGRFTISRDDSKNSLYLQMNSLKTEDTAVYYCRYVHYGAYYGVDAWGQGTTVTVSSASTKGPSVFPLAPSSKSTSGGTAALGCLVKDYFPEPVTVSWNSGALTSGVHTFPAVLQSSGLYSLSSVVTVPSSSLGTQTYICNVNHKPSNTKVDKKVEPKSCDKTHTCPPCPAPEAAGGPSVFLFPPKPKDTLMISRTPEVTCVVVDVSHEDPEVKFNWYVDGVEVHNAKTKPREEQYASTYRVVSVLTVLHQDWLNGKEYKCKVSNKALPAPIEKTISKAKGQPREPQVYTLPPSRCELTKNQVSLSCAVKGFYPSDIAVEWESNGQPENNYKTTPPVLDSDGSFFLVSKLTVDKSRWQQGNVFSCSVMHEALHNHYTQKSLSLSPDYKDDDDK EPKSSDKTHTCPPCPAPELLGGPSVFLFPPKPKDTLMISRTPEVTCVVVDVSHEDPEVKFNWYVDGVEVHNAKTKPREEQYNSTYRVVSVLTVLHQDWLNGKEYKCKVSNKALPAPIEKTISKAKGQPREPQVCTLPPSRDELTKNQVSLWCLVKGFYPSDIAVEWESNGQPENNYKTTPPVLDSDGSFFLYSKLTVDKSRWQQGNVFSCSVMHEALHNRYTQKSLSLSP light: DIVMTQSPLSLPVTPGEPASISCRSSQSLVHSNRNTYLHWYQQKPGQAPRLLIYKVSNRFSGVPDRFSGSGSGTDFTLKISRVEAEDVGVYYCGQGTQVPYTFGQGTKLEIKRTVAAPSVFIFPPSDEQLKSGTASVVCLLNNFYPREAKVQWKVDNALQSGNSQESVTEQDSKDSTYSLSSTLTLSKADYEKHKVYACEVTHQGLSSPVTKSFNRGEC
0.27	CE115HA000 K52bD one-arm antibody (antibody, human IgG1, kappa, L234A L235A, N297A, name in Kabat numbering) heavy: QVQLVESGGGVVQPGRSLRLSCAASGFTFSNAWMHWVRQAPGKGLEWVAQIKADSNNYATYYAESVKGRFTISRDDSKNSLYLQMNSLKTEDTAVYYCRYVHYGAYYGVDAWGQGTTVTVSSASTKGPSVFPLAPSSKSTSGGTAALGCLVKDYFPEPVTVSWNSGALTSGVHTFPAVLQSSGLYSLSSVVTVPSSSLGTQTYICNVNHKPSNTKVDKKVEPKSCDKTHTCPPCPAPEAAGGPSVFLFPPKPKDTLMISRTPEVTCVVVDVSHEDPEVKFNWYVDGVEVHNAKTKPREEQYASTYRVVSVLTVLHQDWLNGKEYKCKVSNKALPAPIEKTISKAKGQPREPQVYTLPPSRCELTKNQVSLSCAVKGFYPSDIAVEWESNGQPENNYKTTPPVLDSDGSFFLVSKLTVDKSRWQQGNVFSCSVMHEALHNHYTQKSLSLSPDYKDDDDK EPKSSDKTHTCPPCPAPELLGGPSVFLFPPKPKDTLMISRTPEVTCVVVDVSHEDPEVKFNWYVDGVEVHNAKTKPREEQYNSTYRVVSVLTVLHQDWLNGKEYKCKVSNKALPAPIEKTISKAKGQPREPQVCTLPPSRDELTKNQVSLWCLVKGFYPSDIAVEWESNGQPENNYKTTPPVLDSDGSFFLYSKLTVDKSRWQQGNVFSCSVMHEALHNRYTQKSLSLSP light: DIVMTQSPLSLPVTPGEPASISCRSSQSLVHSNRNTYLHWYQQKPGQAPRLLIYKVSNRFSGVPDRFSGSGSGTDFTLKISRVEAEDVGVYYCGQGTQVPYTFGQGTKLEIKRTVAAPSVFIFPPSDEQLKSGTASVVCLLNNFYPREAKVQWKVDNALQSGNSQESVTEQDSKDSTYSLSSTLTLSKADYEKHKVYACEVTHQGLSSPVTKSFNRGEC
0.61	CE115HA000 K52bL one-arm antibody (antibody, human IgG1, kappa, L234A L235A, N297A, name in Kabat numbering) heavy: QVQLVESGGGVVQPGRSLRLSCAASGFTFSNAWMHWVRQAPGKGLEWVAQIKALSNNYATYYAESVKGRFTISRDDSKNSLYLQMNSLKTEDTAVYYCRYVHYGAYYGVDAWGQGTTVTVSSASTKGPSVFPLAPSSKSTSGGTAALGCLVKDYFPEPVTVSWNSGALTSGVHTFPAVLQSSGLYSLSSVVTVPSSSLGTQTYICNVNHKPSNTKVDKKVEPKSCDKTHTCPPCPAPEAAGGPSVFLFPPKPKDTLMISRTPEVTCVVVDVSHEDPEVKFNWYVDGVEVHNAKTKPREEQYASTYRVVSVLTVLHQDWLNGKEYKCKVSNKALPAPIEKTISKAKGQPREPQVYTLPPSRCELTKNQVSLSCAVKGFYPSDIAVEWESNGQPENNYKTTPPVLDSDGSFFLVSKLTVDKSRWQQGNVFSCSVMHEALHNHYTQKSLSLSPDYKDDDDK EPKSSDKTHTCPPCPAPELLGGPSVFLFPPKPKDTLMISRTPEVTCVVVDVSHEDPEVKFNWYVDGVEVHNAKTKPREEQYNSTYRVVSVLTVLHQDWLNGKEYKCKVSNKALPAPIEKTISKAKGQPREPQVCTLPPSRDELTKNQVSLWCLVKGFYPSDIAVEWESNGQPENNYKTTPPVLDSDGSFFLYSKLTVDKSRWQQGNVFSCSVMHEALHNRYTQKSLSLSP light: DIVMTQSPLSLPVTPGEPASISCRSSQSLVHSNRNTYLHWYQQKPGQAPRLLIYKVSNRFSGVPDRFSGSGSGTDFTLKISRVEAEDVGVYYCGQGTQVPYTFGQGTKLEIKRTVAAPSVFIFPPSDEQLKSGTASVVCLLNNFYPREAKVQWKVDNALQSGNSQESVTEQDSKDSTYSLSSTLTLSKADYEKHKVYACEVTHQGLSSPVTKSFNRGEC
0.6	CE115HA000 K52bQ one-arm antibody (antibody, human IgG1, kappa, L234A L235A, N297A, name in Kabat numbering) heavy: QVQLVESGGGVVQPGRSLRLSCAASGFTFSNAWMHWVRQAPGKGLEWVAQIKAQSNNYATYYAESVKGRFTISRDDSKNSLYLQMNSLKTEDTAVYYCRYVHYGAYYGVDAWGQGTTVTVSSASTKGPSVFPLAPSSKSTSGGTAALGCLVKDYFPEPVTVSWNSGALTSGVHTFPAVLQSSGLYSLSSVVTVPSSSLGTQTYICNVNHKPSNTKVDKKVEPKSCDKTHTCPPCPAPEAAGGPSVFLFPPKPKDTLMISRTPEVTCVVVDVSHEDPEVKFNWYVDGVEVHNAKTKPREEQYASTYRVVSVLTVLHQDWLNGKEYKCKVSNKALPAPIEKTISKAKGQPREPQVYTLPPSRCELTKNQVSLSCAVKGFYPSDIAVEWESNGQPENNYKTTPPVLDSDGSFFLVSKLTVDKSRWQQGNVFSCSVMHEALHNHYTQKSLSLSPDYKDDDDK EPKSSDKTHTCPPCPAPELLGGPSVFLFPPKPKDTLMISRTPEVTCVVVDVSHEDPEVKFNWYVDGVEVHNAKTKPREEQYNSTYRVVSVLTVLHQDWLNGKEYKCKVSNKALPAPIEKTISKAKGQPREPQVCTLPPSRDELTKNQVSLWCLVKGFYPSDIAVEWESNGQPENNYKTTPPVLDSDGSFFLYSKLTVDKSRWQQGNVFSCSVMHEALHNRYTQKSLSLSP light: DIVMTQSPLSLPVTPGEPASISCRSSQSLVHSNRNTYLHWYQQKPGQAPRLLIYKVSNRFSGVPDRFSGSGSGTDFTLKISRVEAEDVGVYYCGQGTQVPYTFGQGTKLEIKRTVAAPSVFIFPPSDEQLKSGTASVVCLLNNFYPREAKVQWKVDNALQSGNSQESVTEQDSKDSTYSLSSTLTLSKADYEKHKVYACEVTHQGLSSPVTKSFNRGEC
0.27	CE115HA000 K52bN one-arm antibody (antibody, human IgG1, kappa, L234A L235A, N297A, name in Kabat numbering) heavy: QVQLVESGGGVVQPGRSLRLSCAASGFTFSNAWMHWVRQAPGKGLEWVAQIKANSNNYATYYAESVKGRFTISRDDSKNSLYLQMNSLKTEDTAVYYCRYVHYGAYYGVDAWGQGTTVTVSSASTKGPSVFPLAPSSKSTSGGTAALGCLVKDYFPEPVTVSWNSGALTSGVHTFPAVLQSSGLYSLSSVVTVPSSSLGTQTYICNVNHKPSNTKVDKKVEPKSCDKTHTCPPCPAPEAAGGPSVFLFPPKPKDTLMISRTPEVTCVVVDVSHEDPEVKFNWYVDGVEVHNAKTKPREEQYASTYRVVSVLTVLHQDWLNGKEYKCKVSNKALPAPIEKTISKAKGQPREPQVYTLPPSRCELTKNQVSLSCAVKGFYPSDIAVEWESNGQPENNYKTTPPVLDSDGSFFLVSKLTVDKSRWQQGNVFSCSVMHEALHNHYTQKSLSLSPDYKDDDDK EPKSSDKTHTCPPCPAPELLGGPSVFLFPPKPKDTLMISRTPEVTCVVVDVSHEDPEVKFNWYVDGVEVHNAKTKPREEQYNSTYRVVSVLTVLHQDWLNGKEYKCKVSNKALPAPIEKTISKAKGQPREPQVCTLPPSRDELTKNQVSLWCLVKGFYPSDIAVEWESNGQPENNYKTTPPVLDSDGSFFLYSKLTVDKSRWQQGNVFSCSVMHEALHNRYTQKSLSLSP light: DIVMTQSPLSLPVTPGEPASISCRSSQSLVHSNRNTYLHWYQQKPGQAPRLLIYKVSNRFSGVPDRFSGSGSGTDFTLKISRVEAEDVGVYYCGQGTQVPYTFGQGTKLEIKRTVAAPSVFIFPPSDEQLKSGTASVVCLLNNFYPREAKVQWKVDNALQSGNSQESVTEQDSKDSTYSLSSTLTLSKADYEKHKVYACEVTHQGLSSPVTKSFNRGEC
